Patent publication US20250115889A1 (DENTERIC, published 2025)

What was measured:
[1] = target: the molecule itself; assay: column 'Multimer [yes/no]'; self-association
[2] = target: the molecule itself; assay: native PAGE of small scale purified protein, self-association (multimer ladder)
[3] = target: the molecule itself; assay: Native PAGE without DTT; self-association (ability to form multimers)
[4] = target: the molecule itself; assay: native PAGE of small scale purified protein, self-association (multimer bands)
[5] = target: the molecule itself; assay: native PAGE with and without DTT, self-association (multimer ladder)
[6] = target: the molecule itself; assay: native PAGE of small scale purified protein, self-association (multimers)

B1: DUF (other)
chain: AEGSREVKRIGDGLFVTIEPANDVRANEAKVVLAADNVWGDNTGYQFLLDADHNTFGSVIPATGPLFTGTASSNLYSANFEYLIPANADPVVTTQNIIVTGQGEVVIPGGVYDYCITNPEPASGKMWIAGDGGNQPARYDDFTFEAGKKYTFTMRRAGMGDGTDM
notes: also called DUF2436 domain; not shown: C-terminal His tag
B1: no binding [1].

B2: KDAK1n (other)
chain: NTGVSFANYTAHGSETAWADPLLTTSQLKALTNKDKAEGSREVKRIGDGLFVTIEPANDVRANEAKVVLAADNVWGDNTGYQFLLDADHNTFGSVIPATGPLFTGTASSNLYSANFEYLIPANADPVVTTQNIIVTGQGEVVIPGGVYDYCITNPEPASGKMWIAGDGGNQPARYDDFTFEAGKKYTFTMRRAGMGDGTDMEVEDDSPASYTYTVYRDGTKIKEGLTATTFEEDGVAAGNHEYCVEVKYTAGVSPKVCKDVTVEGSNEFAPVQNLTGSSVGQKVTLKWDAPNGTPNPNPNPNPNPGTTLSESFENGIPASWKTIDADGDGHGWKPGNAPGIAGYNSNGCVYSESFGLGGIGVLTPDNYLITPALDLPNGG
B2: binds [2].

B3: KDAK1n-4S-AVQP (other)
chain: NTGVSFANYTAHGSETAWADPLLTTSQLKALTNKDKAEGSREVKRIGDGLFVTIEPANDVRANEAKVVLAADNVWGDNTGYQFLLDADHNTFGSVIPATGPLFTGTASSNLYSANFEYLIPANADPVVTTQNIIVTGQGEVVIPGGVYDYSITNPEPASGKMWIAGDGGNQPARYDDFTFEAGKKYTFTMRRAGMGDGTDMEVEDDSPASYTYTVYRDGTKIKEGLTATTFEEDGVAAGNHEYSVEVKYTAGVSPKVSKDVTVEGSNEFAAVQPLTGSSVGQKVTLKWDAPNGTPNPNPNPNPNPGTTLSESFENGIPASWKTIDADGDGHGWKPGNAPGIAGYNSNGSVYSESFGLGGIGVLTPDNYLITPALDLPNGG
notes: also called KDAK1n mutant
B3: no binding [1].

B4: rABM21-SSEYQ (other)
chain: ASYTYTVYRDGTKIKEGLTATTFEEDGVAAGNHEYCVEVKYTAGVSPKVCKDVTVEGSSEYQPVQNLTGSSVGQKVTLKWDAPNGT
notes: also called SSEYQ variant
B4: binds [3].

B5: rABM21-Y > A/W > A (other)
chain: ASYTATVYRDGTKIKEGLTATTFEEDGVAAGNHEYCVEVKYTAGVSPKVCKDVTVEGSNEFAPVQNLTGSSVGQKVTLKADAPNGT
B5: no binding [3].

B6: DUF-ABM213 (other)
chain: AEGSREVKRIGDGLFVTIEPANDVRANEAKVVLAADNVWGDNTGYQFLLDADHNTFGSVIPATGPLFTGTASSNLYSANFEYLIPANADPVVTTQNIIVTGQGEVVIPGGVYDYCITNPEPASGKMWIAGDGGNQPARYDDFTFEAGKKYTFTMRRAGMGDGTDMEVEDDSPASYTYTVYRDGTKIKEGLTATTFEEDGVAAGNHEYCVEVKYTAGVSPKVCKDVTVEGSNEFAPVQNLTGSSVGQKVTLKWDAPNGTPNPNPNPNPNPGT
notes: also called DUF2436 domain plus ABMs
B6: binds [1].

B7: KDcAK1nK (other)
chain: NTGVSFANYTAHGSETAWADPLLTTSQLKALTNKDKWGDNTGYQFLLDADHNTFGSVIPATGPLFTGTASSNLYSANFEYLIPANADPVVTTQNIIVTGQGEVVIPGGVYDYCITNPEPASGKMWIAGDGGNQPARYDDFTFEAGKKYTFTMRRAGMGDGTDMEVEDDSPASYTYTVYRDGTKIKEGLTATTFEEDGVAAGNHEYCVEVKYTAGVSPKVCKDVTVEGSNEFAPVQNLTGSSVGQKVTLKWDAPNGTPNPNPNPNPNPGTTLSESFENGIPASWKTIDADGDGHGWKPGNAPGIAGYNSNGCVYSESFGLGGIGVLTPDNYLITPALDLPNGGNTGVSFANYTAHGSETAWADPLLTTSQLKALTNKDK
B7: binds [4].

B8: KDcAK1n-4S (other)
chain: NTGVSFANYTAHGSETAWADPLLTTSQLKALTNKDKWGDNTGYQFLLDADHNTFGSVIPATGPLFTGTASSNLYSANFEYLIPANADPVVTTQNIIVTGQGEVVIPGGVYDYSITNPEPASGKMWIAGDGGNQPARYDDFTFEAGKKYTFTMRRAGMGDGTDMEVEDDSPASYTYTVYRDGTKIKEGLTATTFEEDGVAAGNHEYSVEVKYTAGVSPKVSKDVTVEGSNEFAPVQNLTGSSVGQKVTLKWDAPNGTPNPNPNPNPNPGTTLSESFENGIPASWKTIDADGDGHGWKPGNAPGIAGYNSNGSVYSESFGLGGIGVLTPDNYLITPALDLPNGG
notes: also called chimera with all four Cysteine residues mutated to Serine
B8: binds [5].

B9: KDcAK1n (prior art chimera) (other)
chain: NTGVSFANYTAHGSETAWADPLLTTSQLKALTNKDKWGDNTGYQFLLDADHNTFGSVIPATGPLFTGTASSNLYSANFEYLIPANADPVVTTQNIIVTGQGEVVIPGGVYDYCITNPEPASGKMWIAGDGGNQPARYDDFTFEAGKKYTFTMRRAGMGDGTDMEVEDDSPASYTYTVYRDGTKIKEGLTATTFEEDGVAAGNHEYCVEVKYTAGVSPKVCKDVTVEGSNEFAPVQNLTGSSVGQKVTLKWDAPNGTPNPNPNPNPNPGTTLSESFENGIPASWKTIDADGDGHGWKPGNAPGIAGYNSNGCVYSESFGLGGIGVLTPDNYLITPALDLPNGG
notes: also called original chimera
B9: binds [6].

B10: KDcAK1n-4S-AVQP (other)
chain: NTGVSFANYTAHGSETAWADPLLTTSQLKALTNKDKWGDNTGYQFLLDADHNTFGSVIPATGPLFTGTASSNLYSANFEYLIPANADPVVTTQNIIVTGQGEVVIPGGVYDYSITNPEPASGKMWIAGDGGNQPARYDDFTFEAGKKYTFTMRRAGMGDGTDMEVEDDSPASYTYTVYRDGTKIKEGLTATTFEEDGVAAGNHEYSVEVKYTAGVSPKVSKDVTVEGSNEFAAVQPLTGSSVGQKVTLKWDAPNGTPNPNPNPNPNPGTTLSESFENGIPASWKTIDADGDGHGWKPGNAPGIAGYNSNGSVYSESFGLGGIGVLTPDNYLITPALDLPNGG
notes: also called KDcAKIn-4S-AVQP; KDcAK1n PVQN>AVQP/4 Cys>Ser variant
B10: no binding [5].

B11: rABM21-2XCys > Ser (other)
chain: ASYTYTVYRDGTKIKEGLTATTFEEDGVAAGNHEYSVEVKYTAGVSPKVSKDVTVEGSNEFAPVQNLTGSSVGQKVTLKWDAPN
B11: binds [5].

B12: rABM21-AVQA-2X Cys > Ser (other)
chain: ASYTYTVYRDGTKIKEGLTATTFEEDGVAAGNHEYSVEVKYTAGVSPKVSKDVTVEGSNEFAAVQALTGSSVGQKVTLKWDAPN
B12: binds [3].

B13: rABM21--Y > A (other)
chain: ASYTATVYRDGTKIKEGLTATTFEEDGVAAGNHEYCVEVKYTAGVSPKVCKDVTVEGSNEFAPVQNLTGSSVGQKVTLKWDAPN
B13: binds [3].

B14: rABM21-AVQN (other)
chain: ASYTYTVYRDGTKIKEGLTATTFEEDGVAAGNHEYCVEVKYTAGVSPKVCKDVTVEGSNEFAAVQNLTGSSVGQKVTLKWDAPN
B14: binds [3].

B15: rABM21 (other)
chain: ASYTYTVYRDGTKIKEGLTATTFEEDGVAAGNHEYCVEVKYTAGVSPKVCKDVTVEGSNEFAPVQNLTGSSVGQKVTLKWDAPN
notes: also called recombinant ABM21; recombinant protein encoding ABM2(1) and ABM1(2)
B15: binds [3].

B16: rABM21-AVQP-2X Cys > Ser (other)
chain: ASYTYTVYRDGTKIKEGLTATTFEEDGVAAGNHEYSVEVKYTAGVSPKVSKDVTVEGSNEFAAVQPLTGSSVGQKVTLKWDAPN
notes: also called ABM21-2S-AVQP
B16: no binding [5].

B17: rABM21-AVQA (other)
chain: ASYTYTVYRDGTKIKEGLTATTFEEDGVAAGNHEYCVEVKYTAGVSPKVCKDVTVEGSNEFAAVQALTGSSVGQKVTLKWDAPN
B17: binds [3].

B18: rABM21-AVQP (other)
chain: ASYTYTVYRDGTKIKEGLTATTFEEDGVAAGNHEYCVEVKYTAGVSPKVCKDVTVEGSNEFAAVQPLTGSSVGQKVTLKWDAPN
B18: binds [3].

B19: rABM213 (other)
chain: ASYTYTVYRDGTKIKEGLTATTFEEDGVAAGNHEYCVEVKYTAGVSPKVCKDVTVEGSNEFAPVQNLTGSSVGQKVTLKWDAPNGTPNPNPNPNPNPGT
notes: also called recombinant protein encoding ABM2(1), ABM1(2) and ABM3
B19: binds [3].

B20: KDAK1nK (other)
chain: NTGVSFANYTAHGSETAWADPLLTTSQLKALTNKDKAEGSREVKRIGDGLFVTIEPANDVRANEAKVVLAADNVWGDNTGYQFLLDADHNTFGSVIPATGPLFTGTASSNLYSANFEYLIPANADPVVTTQNIIVTGQGEVVIPGGVYDYCITNPEPASGKMWIAGDGGNQPARYDDFTFEAGKKYTFTMRRAGMGDGTDMEVEDDSPASYTYTVYRDGTKIKEGLTATTFEEDGVAAGNHEYCVEVKYTAGVSPKVCKDVTVEGSNEFAPVQNLTGSSVGQKVTLKWDAPNGTPNPNPNPNPNPGTTLSESFENGIPASWKTIDADGDGHGWKPGNAPGIAGYNSNGCVYSESFGLGGIGVLTPDNYLITPALDLPNGGNTGVSFANYTAHGSETAWADPLLTTSQLKALTNKDK
B20: binds [2].
